Measurements from the RNAGym collection of RNA variant scans (doi:10.7554/elife.80360).

B1: HDV Ribozyme (parent)
chain: GGCCGGCAUGGUCCCAGCCUCCUCGCUGGCGCCGGCUGGGCAACAUUCCGAGGGGACCGUCCCCUCGGUAAUGGCGAAUGGGACCCA

Variants of: B1
Test: self-cleavage, relative activity (ratio to wild type); higher = more cleavage; co-transcriptional

Variant | self-cleavage
C58G C75G | 0.415
C13G G34U | 0.136
G6U C66G | 0.54
C26U C41G | 1.02
C33A A43G | 0
U65C G82C | 0.252
A70U G74U | 0.499
G17C C61A | 0.185
A8U G34U | 0.142
A16U G40C | 0.365
C75G G76C | 0.189
A16C C63A | 0.942
G76C U79C | 0.643
C33U C44A | 0.499
U23A C41G | 0.849
G59A C63G | 0.805
U65A U72C | 0.511
C62G G81A | 0.299
U9A A42U | 0.688
C32U C75G | 0.17
U27C G73C | 0.332
G2A G59A | 0.208
G35C A70G | 0.208
C22G G40A | 0

Variant | self-cleavage
C3G G34A | 0.229
U60G U72A | 0.458
U47C G53C | 0.653
C26G C64G | 0.787
U47C C85G | 0.831
G6U C57A | 0.623
U23C A71G | 0.9
C15G | 0.663
C3U C41U | 0.726
G55U A56U | 0.797
A56C A78G | 0.706
A51C C75A | 0.0449
C15U U27C | 0.712
G1A U12G | 0.554
G1A U12C | 0
C33G U79C | 0.0875
G31C G67A | 0.402
C66G C85U | 0.933
A43G G82A | 0.138
G2A C44U | 0.0554
C57U C63U | 0.958
C22A U65A | 0.237
C26U A42U | 0.682
C30U C44A | 0.117

Variant | self-cleavage
G5U G76A | 0.391
G39U C62G | 0.408
C36A G50C | 0.113
U27A C63A | 0.95
U47C C66A | 0.875
C30G G54U | 0.148
C14G U37C | 0.646
G10U G11A | 0.267
C30A G55U | 0.458
U20G U46C | 0.185
A51C U79C | 0.447
C19U G38A | 0.0875
C48U C86U | 1.09
G29U G68A | 0.0886
G59A | 1.02
C36A G76A | 0.266
C4A G25A | 0.089
U65G C66A | 0.9
C3A C19G | 0.0441
G6A G76U | 0.881
A43C A87U | 0.59
C61G G74A | 0.429
G11C A45U | 0.0554
C58U G80A | 0.372

Variant | self-cleavage
U20G G68A | 0.0378
C21G G74A | 0.0511
A42G A51G | 0.571
A8G G53C | 1.03
C26G G39C | 0.18
G10C C26U | 0.997
A43G A87G | 0.634
G54A G67U | 0.657
A45U C64G | 0.671
C26G C49A | 0.95
C19G G68A | 0.021
U47A G82U | 0.142
C3A C66A | 0.473
C24G C86U | 0.17
G25C A87U | 0.0773
U65C U69C | 1.02
G35A G82U | 0.241
C7U U46G | 0.68
G53A C85G | 0.923
U47G C85G | 1.18
G53U G82C | 0.381
U12G G74U | 0.453
C66A G76A | 1.13
G17A G35U | 0.0906

Variant | self-cleavage
G17A U23C | 0.462
G1U C7G | 0.332
C24U C26G | 0.615
C15G C64U | 1.02
C33A C75U | 0.0563
C24A G53C | 0.785
U9C A71G | 0.997
G28A C32U | 0.0845
C30U G73U | 0.153
G38U C62G | 0.0831
G6A G82C | 0
C24U G73C | 0.0773
G35C A51G | 0.415
A16C G50C | 0.959
A51G A83C | 0.199
A42G G55C | 0.675
U20A C24A | 0.0415
G38C C57U | 0.282
G25A U79A | 0.0437
G28C C84A | 0.135
C14U G35A | 0.631
C32U C49A | 0.683
C19U G73A | 0.122
G25U A42G | 0.119

Variant | self-cleavage
A77G A83G | 0.906
C15G G17U | 0.243
C44U C66G | 0.895
U60C A70G | 1.15
C33U G80A | 0.12
C36A G68A | 0.293
C3G C61A | 0.87
G55A U79C | 0.511
A43U C57G | 0.674
G31A A70G | 0.4
C22G U23A | 0.0941
G35C G74U | 0.133
U20G A87U | 0.158
G59A A78C | 0.282
C63U G81U | 0.361
G25U G53A | 0.19
G5U C7A | 0.566
C41A C49U | 0.91
G28A G38A | 0.0647
G6C C14G | 0.111
A51G C86G | 0.702
U46G G74U | 0.529
G2A C66U | 0.192
C26A C66U | 0.857

Variant | self-cleavage
G67A A77G | 0.712
C15A G59U | 0.623
C32G U46C | 0.0978
C62A C85G | 0.88
C61U A87U | 0.959
U20G U23A | 0
C21A C57A | 0.102
A83U C84G | 0.332
G6U G17U | 0.0519
C44G C63G | 0.441
U37C A42C | 0.115
C18A U69C | 0.138
C30U C32U | 0.7
A8G A42C | 0.0573
C14U G38U | 0.271
A45G C63G | 0.739
G17U G25C | 0.0811
G50A A71C | 0.633
C44G G52A | 0.636
A42U G81A | 0.0378
G2U C64U | 0.111
G17A U46C | 0.506
G76A G81U | 0.437
G25C C36G | 0.0519

Variant | self-cleavage
G59U U65C | 1.15
G50U U69C | 0.962
G34U G35U | 0.175
C21U G25C | 0.119
G38C U69C | 0.18
U46C C63A | 0.718
U37A G54U | 0.245
C15G G25A | 0.161
G68A U72A | 0.396
G2U A42G | 0.0767
C3U G34A | 0.106
C21A G35U | 0.0744
G31U G50C | 0.237
U69G C85U | 0.811
G55U U72C | 0.703
C58A C63U | 1.02
C19U G74U | 0.0762
G40U A56G | 0.677
C7A G67C | 0.302
C66A G82U | 0.36
U12A U79A | 0.0791
G6C G68A | 0.201
U27C G81U | 0.475
C13A C75U | 0.163

Variant | self-cleavage
C18U U79G | 0.119
U12C A87U | 0.396
G11U C36A | 0.0755
C57A A78G | 0.63
C14A U60C | 0.485
C13A C63G | 0.38
C7G C75G | 0.145
C44U C75U | 0.157
G54U C86U | 0.882
C14G C62G | 0.0831
C41A A51U | 0.981
U12A C22G | 0.0405
C13U C18U | 0.295
A45G G80U | 0.151
A77G C85G | 0.655
A16U A78C | 0.156
A42G U79C | 0.0386
G2A C58U | 0.113
A8C C61G | 0.772
C30G U72G | 0.0923
A77C C86G | 0.302
G5A C85U | 0.142
U20C G54C | 0.0475
C44A U69A | 0.727

Variant | self-cleavage
C13A G29U | 0.0782
U79A C85A | 0.724
C49U C58A | 1.02
G34C C49U | 0.208
C21U G52C | 0.173
C15U C26U | 1.2
U12G C63G | 0.727
G35U C41U | 0.63
U60C C64A | 1.13
C48G C62U | 0.746
G5U U9C | 0.332
G5U U9G | 0.554
G6A C61G | 0.712
U37C G59A | 1.1
G40C A42C | 0.111
G29U A87G | 0.0585
G29C C62U | 0
G29C C62A | 0
G25A C33A | 0.0863
G50U G67U | 1.02
A8G C19U | 0.104
C33G G67U | 0.111
G6C G38A | 0.0396
G2C C57G | 0.0228

Variant | self-cleavage
G11A G68C | 0.256
G28A A43C | 0.108
A16U G17A | 0.712
C32G U47A | 0.244
C21U G28C | 0.0449
C64U C85G | 0.851
C49A G81C | 0.189
C30G U37C | 0
G81C C85U | 0.244
U27G C66G | 0.629
A42C A83G | 0.129
G28U G40C | 0.215
C22U G82C | 0.198
U23A A70C | 1.01
A56U A83U | 0.318
G1A U27G | 0
U9G C14A | 0.831
G5C A42G | 0
U9G G11A | 0.346
A16U A42G | 0.166
G54C A78C | 0.191
G2U U23A | 0.0391
G17A G68C | 0.575
G25C A70G | 0.0573

Variant | self-cleavage
C21U U46C | 0.386
U47A C86A | 1.04
G34U C61A | 0.0608
C36G C63A | 0.269
G39C C41A | 0.802
G38A A71C | 0.032
G25U C75U | 0.162
U12G U23A | 0.875
C3A C24G | 0.089
C66G U69C | 0.898
U12C C66G | 0.356
C21A G39U | 0.945
C61G G67U | 0.649
G28C A78U | 0.0811
U27A G80U | 0.231
U23C C63G | 0.813
C32U G34C | 0.0875
C22U C44G | 0.095
G29C G82U | 0.0959
C13U U20A | 0.0831
G38C U46G | 0.095
G52U U72A | 0.496
G28C G54C | 0.0519
C33G U72G | 0

Variant | self-cleavage
G25A G52A | 0.0863
A8G A56U | 0.831
U23A U72G | 0.302
G1C G6C | 0
C13G C63U | 0
C64A G80U | 0.294
G29C A77U | 0.0369
C14G G80U | 0.261
A45C A77G | 0.534
C3U A16G | 0.675
A71G A83U | 0.323
U37C G74U | 0.332
G81U C86A | 0.652
C4G G35U | 0.0875
C41A U69A | 0.831
C30U C66A | 0.684
U12C A43U | 0.0923
G80U A87U | 0.235
C36G G82A | 0.07
A16G G39C | 0.0791
C24A U69G | 0.623
C4A G82A | 0.0272
G29C C33U | 0.0941
U12A G34C | 0.208

Variant | self-cleavage
C66U A70C | 0.712
G67A A71G | 1.05
C18G C49A | 0.0791
C18U A87G | 0.733
C14U U20C | 0.133
C15A G67A | 0.499
U27C A87G | 0.497
C15U C33U | 0.708
C13A A87G | 0.187
C3G U20C | 0.0489
G25C C86G | 0.332
G35A C62U | 0.665
G10C C14G | 0.312
A51C C84U | 0.831
C22A C75G | 0.0604
G40U G52C | 0.891
U23G C84A | 0.712
G52C G53A | 0.733
G35U U79A | 0.166
A45G A51U | 0.944
G11A G67C | 0.456
G40U U46G | 0.136
